Article PMC5012860

Molecular target: T1, UHRF1 wild-type (human) (UniProt Q96T88)
T1 sequence: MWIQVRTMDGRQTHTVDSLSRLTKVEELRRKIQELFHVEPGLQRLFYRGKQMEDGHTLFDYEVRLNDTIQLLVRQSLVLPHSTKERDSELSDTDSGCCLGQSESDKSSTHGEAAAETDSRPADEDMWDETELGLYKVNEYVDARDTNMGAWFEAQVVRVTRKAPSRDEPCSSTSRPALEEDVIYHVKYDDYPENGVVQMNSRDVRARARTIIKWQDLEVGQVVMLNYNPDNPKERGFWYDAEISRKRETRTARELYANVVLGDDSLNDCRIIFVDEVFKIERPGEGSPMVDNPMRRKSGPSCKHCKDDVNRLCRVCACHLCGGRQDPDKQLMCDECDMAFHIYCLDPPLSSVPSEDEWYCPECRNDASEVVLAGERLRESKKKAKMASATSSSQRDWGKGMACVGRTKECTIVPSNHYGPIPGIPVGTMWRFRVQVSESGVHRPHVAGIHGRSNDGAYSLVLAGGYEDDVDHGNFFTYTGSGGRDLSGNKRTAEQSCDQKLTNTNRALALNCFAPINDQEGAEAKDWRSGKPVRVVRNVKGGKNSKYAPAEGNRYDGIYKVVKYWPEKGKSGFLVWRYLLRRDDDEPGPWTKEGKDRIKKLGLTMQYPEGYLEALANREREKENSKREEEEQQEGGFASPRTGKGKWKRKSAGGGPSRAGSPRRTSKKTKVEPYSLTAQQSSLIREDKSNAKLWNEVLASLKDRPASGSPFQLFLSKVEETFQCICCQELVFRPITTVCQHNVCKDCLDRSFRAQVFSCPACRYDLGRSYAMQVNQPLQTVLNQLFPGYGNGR
Test: fluorescence polarization
Conditions: 50 mM vs 150 mM NaCl; 5mC at position 6 of strand 2 (GTCAG5mCGCATGG); 25 mM HEPES pH 7.5, 0.05% NP-40, 100 mM NaCl (unless indicated), 10 nM FAM-DNA, 10 min, 25 C; scale: fold affinity difference between 50 and 150 mM NaCl

Sequence: CCATGCGCTGAC (double strand) [HeDNA]
- binding signal: 500
